Experimental data from IntAct's records for PubMed 21934712.

Molecular target: scc4_human MAU2 (UniProt Q9Y6X3)
Chain of UniProt Q9Y6X3 (Q9Y6X3 whole entry): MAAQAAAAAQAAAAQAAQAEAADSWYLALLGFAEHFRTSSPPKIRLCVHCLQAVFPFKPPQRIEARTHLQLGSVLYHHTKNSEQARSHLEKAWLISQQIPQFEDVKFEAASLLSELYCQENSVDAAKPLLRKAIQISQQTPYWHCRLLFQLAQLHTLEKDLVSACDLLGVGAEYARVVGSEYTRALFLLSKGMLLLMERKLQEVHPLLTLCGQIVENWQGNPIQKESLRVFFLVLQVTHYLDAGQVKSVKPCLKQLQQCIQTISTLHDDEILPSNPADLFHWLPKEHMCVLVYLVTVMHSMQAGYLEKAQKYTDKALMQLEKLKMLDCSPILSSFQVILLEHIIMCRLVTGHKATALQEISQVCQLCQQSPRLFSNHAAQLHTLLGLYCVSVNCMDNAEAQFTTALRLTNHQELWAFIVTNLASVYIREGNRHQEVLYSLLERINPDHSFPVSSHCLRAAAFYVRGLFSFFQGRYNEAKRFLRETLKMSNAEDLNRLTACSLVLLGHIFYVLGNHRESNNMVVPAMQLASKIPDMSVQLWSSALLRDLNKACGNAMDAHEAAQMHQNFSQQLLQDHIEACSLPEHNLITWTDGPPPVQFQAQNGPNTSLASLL

Row | Substance | effect of a mutation on the interaction
1 | Nipped-B-like protein (Homo sapiens), Q6KC79 G15R | decreasing interaction strength
2 | Nipped-B-like protein (Homo sapiens), Q6KC79 P29Q | decreasing interaction strength
